Our source for the binding result and Ka values is patent US8603987 (GALAXY BIOTECH, dated 2013).

The target of test [1] is T1, Chimpanzee FGFR2IIIb-Fc (human FGFR2IIIb ECD with residue 186 methionine to threonine, fused to human Fc) (chimpanzee; human, UniProt P21802-3 22-378).
T1 construct: range 1-378; Built from the human FGFR2IIIb-Fc construct; also called chimp FGFR2IIIb; not shown: human Fc, residues 216 to 446
Put plainly: ELISA, FGFR2IIIb-Fc captured by anti-human IgG-Fc. The protocol: (§1) To determine the ability of the mAbs to bind to FGFR2 from species other than human, ELISA assays were used. ELISA wells were coated with 2 µg/ml of goat anti-human IgG-Fc overnight at 4° C. After blocking with 2% BSA for 1 hr at RT, the wells were incubated with 0.2 µg/ml of FGFR2IIIb-Fc for 1 hr, where the FGFRIIIb in the fusion protein was either human, mouse, cynomolgus monkey or chimpanzee FGFRIIIb. The wells were then incubated with various concentrations of GAL-FR21 or GAL-FR22 mAb. The bound mAbs were detected by addition of HRP-conjugated goat anti-mouse IgG-Fc and then TMB substrate. […] A similar experiment with chimpanzee FGFR2 gave the same results as with cynomolgus monkey FGFR2: GAL-FR21 bound to chimpanzee FGFR2 as well as (indistinguishably from) human FGFR2, while GAL-FR22 bound to chimpanzee FGFR2 moderately well (within about 100-fold of human FGFR2). […] Binding to FGFR2 from such other species makes testing of the mAbs in those animal species easier to conduct.
In general terms: In an ELISA, binding on a coated surface is turned into a signal by an enzyme label.

The target in test [2] is T2, human FGFR2IIIb-Fc (alpha form, entire ECD amino acids 1-378 fused to human Fc) (human, UniProt P21802-3 22-378).
T2 construct: range 1-378; Secreted from 293F cells and purified on protein A/G; not shown: human Fc, residues 216 to 446
Put plainly: ELISA, FGFR2IIIb-Fc captured by anti-human IgG-Fc. The method, then: as §1

The target in test [3] is T3, FGFR2IIIc on transfected human 293F cells (UniProt P21802 22-821).
T3 construct: whole, on cells; also called FGFRIIIc
Put plainly: flow cytometry on 293F cells transfected with FGFRIIIc. The method, then:
(§2) Flow cytometry. After washing twice in cell sorting buffer (CSB: PBS/1% FBS/0.02% NaN_3), 2×10^5 cells were resuspended in 50 µl of CSB in a microtiter well and incubated with 50 µl of the anti-FGFR2 mAb to be tested (1 µg/50 µl) for 1 hr on ice. Cells were then washed twice in CSB and the bound antibodies detected by incubation with FITC-goat anti-mouse IgG (Jackson ImmunoResearch Laboratories) for 1 hr on ice. After washing twice in CSB, cells were analyzed on a FACScan (Becton Dickinson).
(§3) To confirm that the selected mAbs bind to the appropriate forms of FGFR2 on the cell membrane, flow cytometry was employed. KATO-III (ATCC HTB-103) and SNU-16 (ATCC CRL-5974) cells, which overexpress FGFR2IIIb, were used to test binding to that form of the receptor. […] Human 293F cells transfected with a gene for FGFRIIIc were used to test binding to that form, after verifying that none of the mAbs bind to the host 293F cells themselves. […] Finally, since the S252W mutation of FGFR2 is found in some cancer cells, binding of the mAbs to 293F cells transfected with an FGFR2IIIb gene constructed to contain that mutation (FGFR2IIIb(S252W)) was tested. As also seen in FIG. 7, all the mAbs bound to the FGFR2IIIb(S252W)-transfected cells. The ability to bind FGFR2IIIb(S252W) is a preferred property of mAbs of the invention.
Background: In flow cytometry, cells or beads pass a laser one at a time.

For test [4], the target named is T4, human FGFR2(beta)IIIb-Fc (amino acids 152-378, missing D1, fused to human Fc) (human, UniProt P21802-3 152-378).
T4 construct: range 152-378; The signal peptide used for secretion of the beta form is not described; also called beta form of FGFR2IIIb; not shown: human Fc, residues 216 to 446
The experiment in a line: ELISA on the four FGFR2-Fc forms, fixed mAb concentration. The method, then:
ELISA assay for mAb binding to FGFR2 fusion protein. ELISA plates were coated with goat anti-human IgG-Fc (2 µg/ml) overnight at 4° C. Then nonspecific binding sites were blocked with 2% BSA for 1 hr at RT. Plates were incubated with one of the FGFR2 fusion proteins described above (1 µg/ml) for 1 hr, followed by incubation with various concentrations of mAbs or hybridoma culture fluids for 1 hr. The bound mAb was detected with HRP-Goat anti-mouse antibody followed by washing, addition of TMB substrate (Sigma) and reading at 450 nm. In all ELISA assays, plates were washed 3 times between each step.
Figure 3: FIG. 3. Binding ELISA of mAbs GAL-FR21, GAL-FR22 and GAL-FR23 and negative control mIgG to FGFR2IIIb. Figure 4: FIG. 4. Binding ELISA of mAbs GAL-FR21, GAL-FR22 and GAL-FR23 and negative control mouse mAb 5G8 to each of the four forms of FGFR2—FGFR2IIIb, FGFR2(beta)IIIb, FGFR2(IIIc) and FGFR2(beta)IIIc—as fusion proteins with Fc. A fixed concentration of each mAb was used in the assay.

In test [5] the target is T5, FGFR2IIIb(S252W) on transfected human 293F cells (UniProt P21802-3 22-822).
T5 construct: whole, on cells
Put plainly: flow cytometry on 293F cells transfected with FGFR2IIIb(S252W). The method, then: as §2, §3

The target of test [6] is T6, FGFR2IIIb on KATO-III and SNU-16 human gastric tumor cells (human, UniProt P21802-3 22-822).
T6 construct: whole, on cells; Endogenous receptor of human tumor cell lines; also called FGFR2IIIb on the cell membrane
The experiment in a line: flow cytometry on KATO-III and SNU-16 cells overexpressing FGFR2IIIb. The method, then:
as §2, §3

For test [7], the target named is T2, human FGFR2IIIb-Fc (alpha form, entire …). Put plainly: estimate from the 50% inhibition point of the competition ELISA on FGFR2IIIb-Fc against biotinylated GAL-FR21. The method, then:
To compare the binding affinity of HuGAL-FR21 with that of the mouse mAb GAL-FR21, a competitive binding experiment was performed using standard ELISA technology. Specifically, ELISA wells were coated with 2 μg/ml of goat anti-human IgG-Fc overnight at 4° C. After blocking with 2% BSA for 1 hr at RT, the wells were incubated with 0.5 μg/ml of FGFR2IIIb-Fc. The wells were then incubated with biotinylated GAL-FR21 mAb (0.05 μg/ml) in the presence of increasing concentrations of unlabeled GAL-FR21, HuGAL-FR21 or control human antibody hIgG. The level of biotinylated GAL-FR21 bound was determined by the addition of HRP-streptavidin and substrate. […] HuGAL-FR21 may also be tested in any of the biological assays for FGFR2 activity described herein, e.g., inhibition of binding of FGF2 or FGF7 to FGFR2, and will inhibit FGFR2 activity comparably to GAL-FR21.

T2 sequence (P21802 other isoform, or with tags, fused parts or gaps): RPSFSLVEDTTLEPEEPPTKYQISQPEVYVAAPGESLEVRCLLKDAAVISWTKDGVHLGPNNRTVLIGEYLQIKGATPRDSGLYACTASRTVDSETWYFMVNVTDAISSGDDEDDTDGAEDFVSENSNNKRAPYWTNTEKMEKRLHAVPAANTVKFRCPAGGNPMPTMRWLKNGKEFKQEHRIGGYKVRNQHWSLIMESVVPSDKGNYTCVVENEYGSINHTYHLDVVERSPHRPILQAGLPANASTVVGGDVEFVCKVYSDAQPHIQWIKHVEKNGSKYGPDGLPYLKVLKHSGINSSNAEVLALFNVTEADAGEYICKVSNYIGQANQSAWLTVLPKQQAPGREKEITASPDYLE
T3 sequence (P21802 22-821): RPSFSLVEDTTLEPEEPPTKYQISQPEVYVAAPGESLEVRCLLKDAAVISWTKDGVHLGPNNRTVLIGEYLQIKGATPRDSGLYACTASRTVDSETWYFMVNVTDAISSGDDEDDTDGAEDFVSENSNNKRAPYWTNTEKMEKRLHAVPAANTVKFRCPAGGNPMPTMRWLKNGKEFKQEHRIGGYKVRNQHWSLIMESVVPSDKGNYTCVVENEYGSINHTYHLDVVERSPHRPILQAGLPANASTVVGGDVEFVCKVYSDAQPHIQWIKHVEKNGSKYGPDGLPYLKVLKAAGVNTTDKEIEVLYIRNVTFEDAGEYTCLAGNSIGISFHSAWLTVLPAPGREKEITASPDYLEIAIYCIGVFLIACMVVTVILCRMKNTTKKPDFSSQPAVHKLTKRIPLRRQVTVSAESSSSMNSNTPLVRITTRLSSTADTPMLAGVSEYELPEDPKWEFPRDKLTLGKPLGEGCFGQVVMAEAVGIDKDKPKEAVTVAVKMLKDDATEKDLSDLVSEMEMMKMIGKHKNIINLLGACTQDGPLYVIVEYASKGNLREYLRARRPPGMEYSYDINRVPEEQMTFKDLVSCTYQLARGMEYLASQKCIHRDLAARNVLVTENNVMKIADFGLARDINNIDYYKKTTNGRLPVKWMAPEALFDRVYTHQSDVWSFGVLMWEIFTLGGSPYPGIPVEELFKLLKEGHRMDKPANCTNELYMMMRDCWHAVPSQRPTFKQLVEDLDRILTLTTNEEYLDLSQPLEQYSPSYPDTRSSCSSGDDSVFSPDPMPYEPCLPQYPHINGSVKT
T4 sequence (P21802 other isoform, or with tags, fused parts or gaps): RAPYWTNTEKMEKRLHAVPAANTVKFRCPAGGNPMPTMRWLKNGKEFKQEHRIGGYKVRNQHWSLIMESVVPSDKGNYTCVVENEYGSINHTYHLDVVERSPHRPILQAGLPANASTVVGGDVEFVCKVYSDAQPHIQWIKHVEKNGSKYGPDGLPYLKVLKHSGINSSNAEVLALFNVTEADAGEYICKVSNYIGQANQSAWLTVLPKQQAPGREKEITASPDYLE
T5 sequence (P21802 other isoform, or with tags, fused parts or gaps S252W S252W): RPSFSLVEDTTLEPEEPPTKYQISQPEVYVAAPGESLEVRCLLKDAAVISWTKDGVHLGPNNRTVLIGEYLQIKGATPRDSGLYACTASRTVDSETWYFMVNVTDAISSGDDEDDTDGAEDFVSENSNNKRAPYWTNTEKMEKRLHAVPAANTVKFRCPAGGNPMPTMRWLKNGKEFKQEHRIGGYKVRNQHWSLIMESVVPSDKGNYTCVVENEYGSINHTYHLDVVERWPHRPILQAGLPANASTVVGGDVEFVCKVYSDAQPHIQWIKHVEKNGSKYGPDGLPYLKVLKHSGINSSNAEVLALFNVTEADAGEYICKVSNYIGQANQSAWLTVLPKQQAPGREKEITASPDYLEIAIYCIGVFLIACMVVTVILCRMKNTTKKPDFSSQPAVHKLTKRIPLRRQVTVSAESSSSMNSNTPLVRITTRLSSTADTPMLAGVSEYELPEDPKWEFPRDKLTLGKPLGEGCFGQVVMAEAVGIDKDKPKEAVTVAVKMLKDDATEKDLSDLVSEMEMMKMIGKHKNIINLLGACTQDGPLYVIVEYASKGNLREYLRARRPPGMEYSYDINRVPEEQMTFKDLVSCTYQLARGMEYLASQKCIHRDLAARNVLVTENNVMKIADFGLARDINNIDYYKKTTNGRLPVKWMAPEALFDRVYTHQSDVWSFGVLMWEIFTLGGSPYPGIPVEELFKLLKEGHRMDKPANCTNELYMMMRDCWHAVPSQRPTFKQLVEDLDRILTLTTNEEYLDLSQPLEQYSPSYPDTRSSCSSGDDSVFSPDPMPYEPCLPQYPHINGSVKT
T6 sequence (P21802 other isoform, or with tags, fused parts or gaps): as the sequence (P21802 other isoform, or with tags, fused parts or gaps S252W S252W) above, with W231S counted along it
T1 sequence (P21802 other isoform, or with tags, fused parts or gaps): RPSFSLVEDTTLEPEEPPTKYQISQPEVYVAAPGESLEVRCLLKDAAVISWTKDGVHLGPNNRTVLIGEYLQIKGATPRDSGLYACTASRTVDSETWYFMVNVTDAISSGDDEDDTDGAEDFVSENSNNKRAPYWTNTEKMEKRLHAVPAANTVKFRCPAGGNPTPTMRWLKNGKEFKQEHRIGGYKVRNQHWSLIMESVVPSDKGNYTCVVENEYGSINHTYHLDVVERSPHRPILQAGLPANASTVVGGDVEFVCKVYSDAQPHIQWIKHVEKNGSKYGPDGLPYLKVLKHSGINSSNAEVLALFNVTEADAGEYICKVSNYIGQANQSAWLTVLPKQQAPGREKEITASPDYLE

B1: GAL-FR22 (antibody, V domains shown)
VH: QVQLKQSGPGLVQPSQSLSITCTVSGFSLTSFGVHWVRQSPGKGLEWLGVIWSGGSTDYNADFRSRLSISKDNSKSQIFFKMNSLQPDDTAIYYCANFYYGYDDYVMDYWGQGTSVTVSS
VL: DIQMTQSPSSLSASLGGRVTITCKASQDIKNYIAWYQHKPGKSPRLLIHYTSTLQPGVPSRFSGSGSGRDYSFSISNLEPEDIATYYCLQYDDLYMFGGGTKLDIK
notes: Mouse monoclonal antibody from a hybridoma; also called GAL-FG22; ATCC PTA-9587
In the case of B1, the binding result in test [1], in test [2], in test [3], in test [4], in test [5] and in test [6] was “binds” throughout.

B2: GAL-FR21 (antibody, V domains shown)
VH: QVQLQQPGAEVVKPGASVKMSCKASGYIFTTYNVHWVKQTPGQGLEWIGSIYPDNGDTSYNQNFKGKATLTADKSSSTAYIQLSSLTSEDSAVYYCARGDFAYWGQGTLVTVSV
VL: NIVMTQSPKSMSMSVGDRVSITCKASQGVSNDVAWYQKKPGQSPKLLIYSASYRYTGVPDRFTGSGSGTDFTFTISNVQAEDLAVYYCQQHSTTPYTFGGGTKLEIK
notes: Mouse monoclonal antibody from a hybridoma; also called mouse GAL-FR21; ATCC PTA-9586
B2: the binding result in test [1] was “binds”; in test [2], “binds”; in test [3], “no binding (tested: 1 µg/50 µl)”; in test [4], “binds”; in test [5], “binds”; in test [6], “binds”.

B3: HuGAL-FR21 (antibody, human IgG1, kappa, V domains shown)
VH: QVQLVQSGAEVKKPGSSVKVSCKASGYIFTTYNVHWVRQAPGQGLEWIGSIYPDNGDTSYNQNFKGRATITADKSTSTAYMELSSLRSEDTAVYYCARGDFAYWGQGTLVTVSS
VL: DIQMTQSPSSLSASVGDRVTITCKASQGVSNDVAWYQQKPGKAPKLLIYSASYRYTGVPSRFSGSGSGTDFTFTISSLQPEDIATYYCQQHSTTPYTFGQGTKLEIKR
notes: Humanized IgG1, kappa; also called humanized GAL-FR21
On to B3, for which the Ka in test [7] is no less than 1e+09 M⁻¹.
